The numbers were not newly measured in paper PMC7500696, which cites them from elsewhere.

The data set deals with tropomyosin N-terminal peptide N-terminal fragment (UniProt P09493). The data set is described as follows: CD.

As for “Leiomodin-2 Lmod2s1 Lmod2s1 (from UniProt Q3UHZ5)”, the Kd was 1000 nM.

The Kd is the free concentration of one partner at which half of the binding sites on the other are occupied at equilibrium, for simple one-to-one binding.
